Experimental data as given in patent US20210388087A1 (Chugai, published 2021).

Molecular target: T1, Human CD3eg linker (human)
T1 construct: single-chain construct; also called recombinant human CD3
T1 chain: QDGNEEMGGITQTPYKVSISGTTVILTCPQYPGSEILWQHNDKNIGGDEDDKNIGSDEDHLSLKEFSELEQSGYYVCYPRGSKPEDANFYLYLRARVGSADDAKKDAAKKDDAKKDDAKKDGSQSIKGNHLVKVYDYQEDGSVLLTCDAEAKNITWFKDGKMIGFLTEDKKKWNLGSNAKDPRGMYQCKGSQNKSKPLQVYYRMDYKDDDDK
Assay: SPR, vs unmutated H183/L072

| Binder | fold change of affinity [fold] |
| --- | --- |
| dBBDu183H T100bD/dBBDu072L (antibody, name in Kabat numbering, V domains shown) VH: QVQLVESGGGLVQPGRSLRLSCAASGFTFSNAWMHWVRQAPGKGLEWVAQIKDKGNAYAAYYAPSVKGRFTISRDDSKNSIYLQMNSLKTEDTAVYYCHYVHYASASDVLPAFGVDAWGQGTTVTVSS VL: DIVMTQSPLSLPVTPGEPASISCQASQELVHMNRNTYLHWYQQKPGQAPRLLIYKVSNRFPGVPDRFSGSGSGTDFTLKISRVEAEDVGVYYCAQGTSVPFTFGQGTKLEIK | 0.6 |
| dBBDu183H T100bE/dBBDu072L (antibody, name in Kabat numbering, V domains shown) VH: QVQLVESGGGLVQPGRSLRLSCAASGFTFSNAWMHWVRQAPGKGLEWVAQIKDKGNAYAAYYAPSVKGRFTISRDDSKNSIYLQMNSLKTEDTAVYYCHYVHYASASEVLPAFGVDAWGQGTTVTVSS VL: DIVMTQSPLSLPVTPGEPASISCQASQELVHMNRNTYLHWYQQKPGQAPRLLIYKVSNRFPGVPDRFSGSGSGTDFTLKISRVEAEDVGVYYCAQGTSVPFTFGQGTKLEIK | 0.6 |
| dBBDu183H T100bF/dBBDu072L (antibody, name in Kabat numbering, V domains shown) VH: QVQLVESGGGLVQPGRSLRLSCAASGFTFSNAWMHWVRQAPGKGLEWVAQIKDKGNAYAAYYAPSVKGRFTISRDDSKNSIYLQMNSLKTEDTAVYYCHYVHYASASFVLPAFGVDAWGQGTTVTVSS VL: DIVMTQSPLSLPVTPGEPASISCQASQELVHMNRNTYLHWYQQKPGQAPRLLIYKVSNRFPGVPDRFSGSGSGTDFTLKISRVEAEDVGVYYCAQGTSVPFTFGQGTKLEIK | 1.2 |
| dBBDu183H T100bG/dBBDu072L (antibody, name in Kabat numbering, V domains shown) VH: QVQLVESGGGLVQPGRSLRLSCAASGFTFSNAWMHWVRQAPGKGLEWVAQIKDKGNAYAAYYAPSVKGRFTISRDDSKNSIYLQMNSLKTEDTAVYYCHYVHYASASGVLPAFGVDAWGQGTTVTVSS VL: DIVMTQSPLSLPVTPGEPASISCQASQELVHMNRNTYLHWYQQKPGQAPRLLIYKVSNRFPGVPDRFSGSGSGTDFTLKISRVEAEDVGVYYCAQGTSVPFTFGQGTKLEIK | 1.1 |
| dBBDu183H T100bH/dBBDu072L (antibody, name in Kabat numbering, V domains shown) VH: QVQLVESGGGLVQPGRSLRLSCAASGFTFSNAWMHWVRQAPGKGLEWVAQIKDKGNAYAAYYAPSVKGRFTISRDDSKNSIYLQMNSLKTEDTAVYYCHYVHYASASHVLPAFGVDAWGQGTTVTVSS VL: DIVMTQSPLSLPVTPGEPASISCQASQELVHMNRNTYLHWYQQKPGQAPRLLIYKVSNRFPGVPDRFSGSGSGTDFTLKISRVEAEDVGVYYCAQGTSVPFTFGQGTKLEIK | 1.2 |
| dBBDu183H T100bK/dBBDu072L (antibody, name in Kabat numbering, V domains shown) VH: QVQLVESGGGLVQPGRSLRLSCAASGFTFSNAWMHWVRQAPGKGLEWVAQIKDKGNAYAAYYAPSVKGRFTISRDDSKNSIYLQMNSLKTEDTAVYYCHYVHYASASKVLPAFGVDAWGQGTTVTVSS VL: DIVMTQSPLSLPVTPGEPASISCQASQELVHMNRNTYLHWYQQKPGQAPRLLIYKVSNRFPGVPDRFSGSGSGTDFTLKISRVEAEDVGVYYCAQGTSVPFTFGQGTKLEIK | 1.3 |
| dBBDu183H T100bN/dBBDu072L (antibody, name in Kabat numbering, V domains shown) VH: QVQLVESGGGLVQPGRSLRLSCAASGFTFSNAWMHWVRQAPGKGLEWVAQIKDKGNAYAAYYAPSVKGRFTISRDDSKNSIYLQMNSLKTEDTAVYYCHYVHYASASNVLPAFGVDAWGQGTTVTVSS VL: DIVMTQSPLSLPVTPGEPASISCQASQELVHMNRNTYLHWYQQKPGQAPRLLIYKVSNRFPGVPDRFSGSGSGTDFTLKISRVEAEDVGVYYCAQGTSVPFTFGQGTKLEIK | 1 |
| dBBDu183H T100bQ/dBBDu072L (antibody, name in Kabat numbering, V domains shown) VH: QVQLVESGGGLVQPGRSLRLSCAASGFTFSNAWMHWVRQAPGKGLEWVAQIKDKGNAYAAYYAPSVKGRFTISRDDSKNSIYLQMNSLKTEDTAVYYCHYVHYASASQVLPAFGVDAWGQGTTVTVSS VL: DIVMTQSPLSLPVTPGEPASISCQASQELVHMNRNTYLHWYQQKPGQAPRLLIYKVSNRFPGVPDRFSGSGSGTDFTLKISRVEAEDVGVYYCAQGTSVPFTFGQGTKLEIK | 1.1 |
| dBBDu183H T100bR/dBBDu072L (antibody, name in Kabat numbering, V domains shown) VH: QVQLVESGGGLVQPGRSLRLSCAASGFTFSNAWMHWVRQAPGKGLEWVAQIKDKGNAYAAYYAPSVKGRFTISRDDSKNSIYLQMNSLKTEDTAVYYCHYVHYASASRVLPAFGVDAWGQGTTVTVSS VL: DIVMTQSPLSLPVTPGEPASISCQASQELVHMNRNTYLHWYQQKPGQAPRLLIYKVSNRFPGVPDRFSGSGSGTDFTLKISRVEAEDVGVYYCAQGTSVPFTFGQGTKLEIK | 1.8 |
| dBBDu183H T100bS/dBBDu072L (antibody, name in Kabat numbering, V domains shown) VH: QVQLVESGGGLVQPGRSLRLSCAASGFTFSNAWMHWVRQAPGKGLEWVAQIKDKGNAYAAYYAPSVKGRFTISRDDSKNSIYLQMNSLKTEDTAVYYCHYVHYASASSVLPAFGVDAWGQGTTVTVSS VL: DIVMTQSPLSLPVTPGEPASISCQASQELVHMNRNTYLHWYQQKPGQAPRLLIYKVSNRFPGVPDRFSGSGSGTDFTLKISRVEAEDVGVYYCAQGTSVPFTFGQGTKLEIK | 1.5 |
| dBBDu183H T100bV/dBBDu072L (antibody, name in Kabat numbering, V domains shown) VH: QVQLVESGGGLVQPGRSLRLSCAASGFTFSNAWMHWVRQAPGKGLEWVAQIKDKGNAYAAYYAPSVKGRFTISRDDSKNSIYLQMNSLKTEDTAVYYCHYVHYASASVVLPAFGVDAWGQGTTVTVSS VL: DIVMTQSPLSLPVTPGEPASISCQASQELVHMNRNTYLHWYQQKPGQAPRLLIYKVSNRFPGVPDRFSGSGSGTDFTLKISRVEAEDVGVYYCAQGTSVPFTFGQGTKLEIK | 1.2 |
| dBBDu183H T100bW/dBBDu072L (antibody, name in Kabat numbering, V domains shown) VH: QVQLVESGGGLVQPGRSLRLSCAASGFTFSNAWMHWVRQAPGKGLEWVAQIKDKGNAYAAYYAPSVKGRFTISRDDSKNSIYLQMNSLKTEDTAVYYCHYVHYASASWVLPAFGVDAWGQGTTVTVSS VL: DIVMTQSPLSLPVTPGEPASISCQASQELVHMNRNTYLHWYQQKPGQAPRLLIYKVSNRFPGVPDRFSGSGSGTDFTLKISRVEAEDVGVYYCAQGTSVPFTFGQGTKLEIK | 1.8 |
| dBBDu183H T100bY/dBBDu072L (antibody, name in Kabat numbering, V domains shown) VH: QVQLVESGGGLVQPGRSLRLSCAASGFTFSNAWMHWVRQAPGKGLEWVAQIKDKGNAYAAYYAPSVKGRFTISRDDSKNSIYLQMNSLKTEDTAVYYCHYVHYASASYVLPAFGVDAWGQGTTVTVSS VL: DIVMTQSPLSLPVTPGEPASISCQASQELVHMNRNTYLHWYQQKPGQAPRLLIYKVSNRFPGVPDRFSGSGSGTDFTLKISRVEAEDVGVYYCAQGTSVPFTFGQGTKLEIK | 1.8 |
| dBBDu183H V63D/dBBDu072L (antibody, name in Kabat numbering, V domains shown) VH: QVQLVESGGGLVQPGRSLRLSCAASGFTFSNAWMHWVRQAPGKGLEWVAQIKDKGNAYAAYYAPSDKGRFTISRDDSKNSIYLQMNSLKTEDTAVYYCHYVHYASASTVLPAFGVDAWGQGTTVTVSS VL: DIVMTQSPLSLPVTPGEPASISCQASQELVHMNRNTYLHWYQQKPGQAPRLLIYKVSNRFPGVPDRFSGSGSGTDFTLKISRVEAEDVGVYYCAQGTSVPFTFGQGTKLEIK | 1.3 |
| dBBDu183H V63E/dBBDu072L (antibody, name in Kabat numbering, V domains shown) VH: QVQLVESGGGLVQPGRSLRLSCAASGFTFSNAWMHWVRQAPGKGLEWVAQIKDKGNAYAAYYAPSEKGRFTISRDDSKNSIYLQMNSLKTEDTAVYYCHYVHYASASTVLPAFGVDAWGQGTTVTVSS VL: DIVMTQSPLSLPVTPGEPASISCQASQELVHMNRNTYLHWYQQKPGQAPRLLIYKVSNRFPGVPDRFSGSGSGTDFTLKISRVEAEDVGVYYCAQGTSVPFTFGQGTKLEIK | 1.1 |
| dBBDu183H V63F/dBBDu072L (antibody, name in Kabat numbering, V domains shown) VH: QVQLVESGGGLVQPGRSLRLSCAASGFTFSNAWMHWVRQAPGKGLEWVAQIKDKGNAYAAYYAPSFKGRFTISRDDSKNSIYLQMNSLKTEDTAVYYCHYVHYASASTVLPAFGVDAWGQGTTVTVSS VL: DIVMTQSPLSLPVTPGEPASISCQASQELVHMNRNTYLHWYQQKPGQAPRLLIYKVSNRFPGVPDRFSGSGSGTDFTLKISRVEAEDVGVYYCAQGTSVPFTFGQGTKLEIK | 1.1 |
| dBBDu183H V63G/dBBDu072L (antibody, name in Kabat numbering, V domains shown) VH: QVQLVESGGGLVQPGRSLRLSCAASGFTFSNAWMHWVRQAPGKGLEWVAQIKDKGNAYAAYYAPSGKGRFTISRDDSKNSIYLQMNSLKTEDTAVYYCHYVHYASASTVLPAFGVDAWGQGTTVTVSS VL: DIVMTQSPLSLPVTPGEPASISCQASQELVHMNRNTYLHWYQQKPGQAPRLLIYKVSNRFPGVPDRFSGSGSGTDFTLKISRVEAEDVGVYYCAQGTSVPFTFGQGTKLEIK | 1 |
| dBBDu183H V63H/dBBDu072L (antibody, name in Kabat numbering, V domains shown) VH: QVQLVESGGGLVQPGRSLRLSCAASGFTFSNAWMHWVRQAPGKGLEWVAQIKDKGNAYAAYYAPSHKGRFTISRDDSKNSIYLQMNSLKTEDTAVYYCHYVHYASASTVLPAFGVDAWGQGTTVTVSS VL: DIVMTQSPLSLPVTPGEPASISCQASQELVHMNRNTYLHWYQQKPGQAPRLLIYKVSNRFPGVPDRFSGSGSGTDFTLKISRVEAEDVGVYYCAQGTSVPFTFGQGTKLEIK | 1 |
| dBBDu183H V63K/dBBDu072L (antibody, name in Kabat numbering, V domains shown) VH: QVQLVESGGGLVQPGRSLRLSCAASGFTFSNAWMHWVRQAPGKGLEWVAQIKDKGNAYAAYYAPSKKGRFTISRDDSKNSIYLQMNSLKTEDTAVYYCHYVHYASASTVLPAFGVDAWGQGTTVTVSS VL: DIVMTQSPLSLPVTPGEPASISCQASQELVHMNRNTYLHWYQQKPGQAPRLLIYKVSNRFPGVPDRFSGSGSGTDFTLKISRVEAEDVGVYYCAQGTSVPFTFGQGTKLEIK | 1.3 |
| dBBDu183H V63N/dBBDu072L (antibody, name in Kabat numbering, V domains shown) VH: QVQLVESGGGLVQPGRSLRLSCAASGFTFSNAWMHWVRQAPGKGLEWVAQIKDKGNAYAAYYAPSNKGRFTISRDDSKNSIYLQMNSLKTEDTAVYYCHYVHYASASTVLPAFGVDAWGQGTTVTVSS VL: DIVMTQSPLSLPVTPGEPASISCQASQELVHMNRNTYLHWYQQKPGQAPRLLIYKVSNRFPGVPDRFSGSGSGTDFTLKISRVEAEDVGVYYCAQGTSVPFTFGQGTKLEIK | 1.3 |
